One series concerns the target T1, SurA (E. coli), P0ABZ6.
T1 chain: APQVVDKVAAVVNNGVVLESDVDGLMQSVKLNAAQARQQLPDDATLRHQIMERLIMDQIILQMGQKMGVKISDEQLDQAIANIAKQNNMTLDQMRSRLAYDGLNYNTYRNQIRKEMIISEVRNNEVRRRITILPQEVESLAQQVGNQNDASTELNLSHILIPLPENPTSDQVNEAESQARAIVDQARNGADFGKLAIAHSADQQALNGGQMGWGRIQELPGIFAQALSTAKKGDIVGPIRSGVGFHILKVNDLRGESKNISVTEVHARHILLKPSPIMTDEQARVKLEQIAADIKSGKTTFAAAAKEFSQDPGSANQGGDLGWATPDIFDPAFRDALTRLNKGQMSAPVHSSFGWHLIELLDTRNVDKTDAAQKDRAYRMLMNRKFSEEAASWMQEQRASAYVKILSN
Description: native gel or EMSA; NativePAGE Bis-Tris 3–12%; HTL 3.8 µM with SurA or SurA:OmpA at 1:3 molar ratio, or each alone, in TS130G (20 mM Tris-HCl pH ≈ 8, 130 mM NaCl, 10% glycerol) + 0.01% DDM-CL, 30 min at 30°C; bands excised and analysed by SDS–PAGE with silver staining. Conditions: remark: other sources report otherwise. Background: Mobility shift assays separate free from complexed probe on a gel.

Series [1] concerns the molecule itself. The description is as above.

The values below come from publication PMC9987972, “Interaction of the periplasmic chaperone SurA with the inner membrane protein secretion (SEC) machinery” (Biochemical Journal, 2023).

B1: SurA, P0ABZ6 21-428 (natural protein)
chain: T1 chain
As for B1, the stoichiometry N with SurA (E. coli), P0ABZ6 was 2.

B2: SurA–OmpA complex (complex)
chain 1: T1 chain
chain 2: APKDNTWYTGAKLGWSQYHDTGFINNNGPTHENQLGAGAFGGYQVNPYVGFEMGYDWLGRMPYKGSVENGAYKAQGVQLTAKLGYPITDDLDIYTRLGGMVWRADTKSNVYGKNHDTGVSPVFAGGVEYAITPEIATRLEYQWTNNIGDAHTIGTRPDNGMLSLGVSYRFGQGEAAPVVAPAPAPAPEVQTKHFTLKSDVLFNFNKATLKPEGQAALDQLYSQLSNLDPKDGSVVVLGYTDRIGSDAYNQGLSERRAQSVVDYLISKGIPADKISARGMGESNPVTGNTCDNVKQRAALIDCLAPDRRVEIEVKGIKDVVTQPQA
notes: SurA, periplasmic chaperone, E. coli; as the chain of m2; OmpA, outer membrane protein, from pET11a-ompA; also called substrate-engaged SurA; occupied chaperone; source: E. coli BL21(DE3), made separately; OmpA pellet in 6 M urea mixed with SurA supernatant, urea dialysed away, purified (HisTrap, HiTrap Q; S200 SEC for the size exclusion experiments)
With B2, in series [1], the “stoichiometry N” value amounted to 2.

Usually stoichiometry N stands for a count of units in the complex or per binding partner.
